Laboratory results taken from paper PMC6640694.

What was measured:
Assay in all cases: BLI; Octet Red96; 5 μg/mL antibody loaded onto Protein A biosensor, dipped into His-tagged OX40 extracellular domain at 200, 100 and 50 nM or 1600, 800 and 400 nM; 1:1 binding model, global fit
[1] = target: tOX40.15
[2] = target: tOX40.19
[3] = target: tOX40.21
[4] = target: tOX40.22
[5] = target: tOX40.23
[6] = target: tOX40.31
[7] = target: tOX40.35
[8] = target: tOX40.37
[9] = target: tOX40.39
[10] = target: tOX40.40
[11] = target: tOX40.41
[12] = target: tOX40.4
[13] = target: tOX40.50
[14] = target: tOX40.54

B1: recombinant His-tagged human OX40 extracellular domain (domain or fragment)
chain: LHCVGDTYPSNDRCCHECRPGNGMVSRCSRSQNTVCRPCGPGFYNDVVSSKPCKPCTWCNLRSGSERKQLCTATQDTVCRCRAGTQPLDSYKPGVDCAPCPPGHFSPGDNQACKPWTNCTLAGKHTLQPASNSSDAICEDRDPPATQPQETQGPPARPITVQPTEAWPRTSQGPSTRPVEVPGGRA
B1 showed a Kd [1] of 6 nM, a Kd [2] of 7.7 nM and a Kd [3] of 7 nM. For the same binder, the Kd [4] was 7.3 nM, the Kd [5] was 5.2 nM and the Kd [6] was 22.4 nM. The Kd [7] was 2.7 nM, the Kd [8] was 12.5 nM and the Kd [9] was 90 nM. The Kd [10] was 151 nM, the Kd [11] was 58.4 nM and the Kd [12] was 9 nM. For the same binder, the Kd [13] was 29.8 nM and the Kd [14] was 184 nM.
